Target: SARS-CoV nsp12 (RdRp) (SARS-coronavirus, UniProt P0C6X7 4370-5301)
Experiment: EMSA; no Zn2+
Details: protein: recombinant; tags: C-terminal His6 (plasmid pASK3-Ub-nsp12-CHis6, ubiquitin fusion vector); label: 5' 32P

B1: SAV557R/SAV481R primed template duplex (dsRNA)
RNA 1: GCUAUGUGAGAUUAAGUUAU
RNA 2: UUUUUUUUUUAUAACUUAAUCUCACAUAGC
binding result: binds

— publication PMC2973827
